Values quoted from earlier work, collected in publication PMC3968163.
pKd: −log10 of the molar value.

Target: p53 TAD (Homo sapiens) (UniProt P04637)
Experiment: ITC

Tfb1 PH, sequence (P32776 1-115): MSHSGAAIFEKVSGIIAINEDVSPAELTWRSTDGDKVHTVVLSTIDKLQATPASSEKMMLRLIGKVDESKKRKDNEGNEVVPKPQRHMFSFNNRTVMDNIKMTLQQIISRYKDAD
p53 TAD (Homo sapiens), sequence (P04637 20-73): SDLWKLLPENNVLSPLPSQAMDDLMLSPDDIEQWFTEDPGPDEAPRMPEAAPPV

Tfb1 PH (from UniProt P32776)
pKd: 6.40
